Measured values from the MegaScale stability set (Tsuboyama et al. 2023).

B1: 6NMW (parent)
chain: QGDIVVALYPYDGIHPDDLSFKKGEKMKVLEEHGEWWKAKSLLTKKEGFIPSNYVAKLN
B2: HHH_rd2_0155 (parent)
chain: PPDDERKKAEKAARSGNEEKAREILERLGYSEDEARELAKRLR

Variants of: B1
Experiment: folding stability dG (cDNA display proteolysis); higher = more stable
Details: PBS, room temperature

Row | Variant | folding stability dG [kcal/mol]
1 | H33V | 3.16
2 | I50W | -0.594
3 | L30Q | 1.56
4 | L30Y | 2.27
5 | W36V | 3.3
6 | P51G | 0.115
7 | P51W | 1.33
8 | S20D | 1.82
9 | D18N | 2.88
10 | D18Q | 4.95
11 | A56Y | 3.8
12 | I14S | 3.09
13 | D17P | 2.35
14 | D17L | 3.6
15 | D17E | 3.72
16 | D17R | 4.21
17 | D17G | 4.77
18 | Q1D | 3.76
19 | Q1K | 4.1
20 | Q1G | 3.67
21 | K23R | 3.33

Row | Variant | folding stability dG [kcal/mol]
22 | W37G | -0.016
23 | W37E | -0.118
24 | W37T | 2.67
25 | L8E | 0.697
26 | N53Y | 3.12
27 | N53V | 2.88
28 | N53D | 3.14
29 | L19N | -0.23
30 | I4Q | 1.21
31 | S41V | 1.06
32 | E32F | 4.1
33 | E31K | 2.67
34 | E31D | 3.05
35 | V5Q | -0.613
36 | V5A | 2.41
37 | K57G | 2.27
38 | K57H | 3.25
39 | K57Y | 4.22
40 | G2H | 3.74
41 | S52W | 3.1
42 | G34S | 2

Row | Variant | folding stability dG [kcal/mol]
43 | G34M | 1.59
44 | L58Y | 3.52
45 | L58C | 3.88
46 | L58G | 1.84
47 | V55W | 0.199
48 | E25C | 1.3
49 | P16T | 2.87
50 | P16G | 2.75
51 | F49T | 2.25
52 | T44D | 1.14
53 | A39G | 1.44
54 | K40S | 2.8
55 | K40W | 3.24
56 | K38V | 3.34
57 | K28N | 2.02
58 | K28H | 3.02
59 | K28T | 3.27
60 | V6W | 2.05
61 | V6T | 2.18
62 | V6C | 3.01
63 | K22M | 3.46

Variants of: B2
Experiment: as above
Details: PBS, room temperature

Row | Variant | folding stability dG [kcal/mol]
64 | PDDDERKKAEKAARSGNEEKAREILERLGYSEDEARELAKRLR | 2.21
65 | PQDDERKKAEKAARSGNEEKAREILERLGYSEDEARELAKRLR | 2.15
66 | PHDDERKKAEKAARSGNEEKAREILERLGYSEDEARELAKRLR | 2.24
67 | PIDDERKKAEKAARSGNEEKAREILERLGYSEDEARELAKRLR | 2.25
68 | PNDDERKKAEKAARSGNEEKAREILERLGYSEDEARELAKRLR | 2.15
69 | PTDDERKKAEKAARSGNEEKAREILERLGYSEDEARELAKRLR | 2.02
70 | PVDDERKKAEKAARSGNEEKAREILERLGYSEDEARELAKRLR | 2.2
71 | PWDDERKKAEKAARSGNEEKAREILERLGYSEDEARELAKRLR | 2.29
72 | PRDDERKKAEKAARSGNEEKAREILERLGYSEDEARELAKRLR | 2.17
73 | PMDDERKKAEKAARSGNEEKAREILERLGYSEDEARELAKRLR | 2.23
74 | PKDDERKKAEKAARSGNEEKAREILERLGYSEDEARELAKRLR | 2.11
75 | PSDDERKKAEKAARSGNEEKAREILERLGYSEDEARELAKRLR | 1.97
76 | PGDDERKKAEKAARSGNEEKAREILERLGYSEDEARELAKRLR | 2.04
77 | PLDDERKKAEKAARSGNEEKAREILERLGYSEDEARELAKRLR | 2.14
78 | PADDERKKAEKAARSGNEEKAREILERLGYSEDEARELAKRLR | 2.18
79 | PCDDERKKAEKAARSGNEEKAREILERLGYSEDEARELAKRLR | 2.29
80 | PFDDERKKAEKAARSGNEEKAREILERLGYSEDEARELAKRLR | 2.35
81 | PEDDERKKAEKAARSGNEEKAREILERLGYSEDEARELAKRLR | 2.24
82 | PYDDERKKAEKAARSGNEEKAREILERLGYSEDEARELAKRLR | 2.29

Row | Variant | folding stability dG [kcal/mol]
83 | NPDDERKKAEKAARSGNEEKAREILERLGYSEDEARELAKRLR | 2.41
84 | LPDDERKKAEKAARSGNEEKAREILERLGYSEDEARELAKRLR | 2.24
85 | IPDDERKKAEKAARSGNEEKAREILERLGYSEDEARELAKRLR | 2.12
86 | GPDDERKKAEKAARSGNEEKAREILERLGYSEDEARELAKRLR | 2.26
87 | FPDDERKKAEKAARSGNEEKAREILERLGYSEDEARELAKRLR | 2.22
88 | RPDDERKKAEKAARSGNEEKAREILERLGYSEDEARELAKRLR | 2.21
89 | DPDDERKKAEKAARSGNEEKAREILERLGYSEDEARELAKRLR | 2.36
90 | YPDDERKKAEKAARSGNEEKAREILERLGYSEDEARELAKRLR | 2.24
91 | KPDDERKKAEKAARSGNEEKAREILERLGYSEDEARELAKRLR | 2.14
92 | QPDDERKKAEKAARSGNEEKAREILERLGYSEDEARELAKRLR | 2.2
93 | EPDDERKKAEKAARSGNEEKAREILERLGYSEDEARELAKRLR | 2.2
94 | VPDDERKKAEKAARSGNEEKAREILERLGYSEDEARELAKRLR | 2.13
95 | HPDDERKKAEKAARSGNEEKAREILERLGYSEDEARELAKRLR | 2.29
96 | SPDDERKKAEKAARSGNEEKAREILERLGYSEDEARELAKRLR | 2.35
97 | APDDERKKAEKAARSGNEEKAREILERLGYSEDEARELAKRLR | 2.22
98 | TPDDERKKAEKAARSGNEEKAREILERLGYSEDEARELAKRLR | 2.36
99 | WPDDERKKAEKAARSGNEEKAREILERLGYSEDEARELAKRLR | 2.33
100 | MPDDERKKAEKAARSGNEEKAREILERLGYSEDEARELAKRLR | 2.17
